{
  "source": "patent US11839630B2",
  "about": "“CAR-T cells targeting IL-1RAP and their use” (ETABLISSEMENT FRANCAIS DU SANG, priority 2017, dated 2023)",
  "molecules": {"B1": {"name": "#E3C3: mouse anti-hIL-1RAP monoclonal antibody subclone generated by standard hybridoma technique; VH SEQ ID NO: 2, VL SEQ ID NO: 4 (antibody, V domains shown)", "VH": "MGWSCIILFLVATATGVNSQVQLQQPGAELMMPGASVKVSCEASGYTFTDSWMHWVKQRPGQGLEWIGAIDPSDSYTTYNQKFTGKATLSVDESSNTAYMQLSSLTSEDSAVYYCARYYSGSNYISPFPYWGQGTLVTVSA", "VL": "MESQIQVFVFVFLWLSGVDGDIVMTQSHKFMSTSVGDRVTITCKASLDVSTAVAWYQQKPGQSPKLLIYSASYRYTGVPDRFTGSGSGTDFTFTISSVQAEDLAVYYCQQHYSPPFTFGSGTNLEIK", "modifications": "Amino acid sequence of chain H (VH) of murine scFv anti-IL-1RAP; Amino acid sequence of chain K (VL) of murine scFv anti-IL-1RAP"}},
  "key": {"[1]": {"target": "T1, IL-1RAP (Homo sapiens, UniProt Q9NPH3)", "T1 sequence (Q9NPH3 21-570)": "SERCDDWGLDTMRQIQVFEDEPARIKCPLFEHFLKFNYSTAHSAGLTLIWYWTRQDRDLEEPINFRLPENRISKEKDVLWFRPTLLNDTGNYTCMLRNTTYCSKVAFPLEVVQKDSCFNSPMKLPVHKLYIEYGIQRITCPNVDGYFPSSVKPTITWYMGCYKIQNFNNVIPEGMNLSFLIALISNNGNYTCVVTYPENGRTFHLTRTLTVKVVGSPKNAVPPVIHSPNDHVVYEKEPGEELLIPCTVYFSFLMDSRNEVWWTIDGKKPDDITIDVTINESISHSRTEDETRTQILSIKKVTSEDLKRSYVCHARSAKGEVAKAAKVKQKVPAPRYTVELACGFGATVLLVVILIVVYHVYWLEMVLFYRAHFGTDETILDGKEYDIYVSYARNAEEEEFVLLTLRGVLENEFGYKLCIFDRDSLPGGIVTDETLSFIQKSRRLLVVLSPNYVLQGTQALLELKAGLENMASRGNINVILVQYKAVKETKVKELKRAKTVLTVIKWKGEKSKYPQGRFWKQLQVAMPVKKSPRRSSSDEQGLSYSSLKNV", "assay": "Immunostaining of FDA standard frozen normal tissue array", "assay_type": "binding", "parameters": "FDA standard frozen tissue arrays, including 90 tissue cores (30 organs) of 3 individual donors per organ; tissue US Biomax; host or cells: FDA standard frozen normal human tissue array (30 organs, 3 donors each); key to Staining intensity (0 to 3+): negative (0); weak staining (1+); moderate staining (2+); strong staining (3+)", "settings": "for normal tissues in which staining was detected: 30 normal human tissues, 3 donors per organ", "source_text": "(§1) FIG. 22: (A) Tissue microarray. Representative #A3C3 staining of an US Food and Drug Administration standard frozen tissue array, including 90 tissue cores (30 organs) of 3 individual donors per organ (US Biomax, Rockville, MD, USA). Immunostaining was detected using the UltraView Universal DAB Detection Kit (Ventana, USA). Images were acquired and analyzed with NDP.view 2.0 software. […] (Scale bars, 100 μm.) High IL-1RAP (KU812)— or negative (Raji)-expressing cell lines were respectively used as positive or negative controls. (B) IL-1RAP R&D (red) or #A3C3 (blue) staining of HMEC-1 dermal endothelial cell line. Isotype IgG1 (gray) is depicted as overlay. RFI is provided for both staining.\nIn order to study specific or non-target tissue binding, FDA standard frozen tissue arrays, including 90 tissue cores (30 organs) of 3 individual donors per organ (US Biomax, Rockville, United States) were incubated as previously described. Immunostaining was detected using UltraView Universal DAB Detection Kit (Ventana, USA). Images were acquired and analyzed with NDP.view 2 software. High IL-1RAP (KU812) or negative (Raji) expressing cell lines were respectively used as positive or negative controls. The staining intensity was graduated as follows: negative (0), weak staining (1+), moderate staining (2+), or strong staining (3+). […]"}, "[2]": {"tested_on": "IL-1RAP-positive (KU812) cell line", "assay": "FACS screening of hybridoma subclones", "assay_type": "binding, human", "settings": "5 monoclonal antibody subclones", "source_text": "Briefly, BALB/c mice (5 weeks, Charles River) were immunized either by foot pad (n=3) or intraperitoneally (n=5) with a recombinant fusion protein consisting of the extra cellular part of IL-1RAP (NM_002182.2, NCBI) and the Fc-part of human IgG1 (R&D Systems, Lille, France). Lymph nodes or spleens cells and blood samples were harvested and cells were fused with the mouse myeloma cell line, then screened by FACS analysis (Becton Dickinson), against IL-1RAP-positive (KU812) and −negative (Raji, KG1) cell lines.\nScreening of hybridoma allowed to select 5 monoclonal antibodies subclones that discriminate IL-1RAP positive (KU812 or KG-1 respectively AML or Phi^+p^210 CML) from negative cell lines (Tom-1, NALM-20, Jurkat or Raji, respectively Phi+^p190 B-ALL, Phi-B-ALL, T-ALL or Burkitt's lymphoma).\nMolecular characterization was performed by Sanger sequencing of cloned PCR products amplification obtained with degenerated primers specific of the FR1 and constant regions of the heavy and light chains according to the protocol of Wang. Z., et al (J. Immunol. Methods, 2000; 233, pp 167-77). Identification of V-D-J-C gene rearrangement and CDR3 region was obtained after alignment of consensus nucleotide sequences against the IMGT® database using V-QUEST online tool according to Brochet X., et al. (Nucleic Acids Res., 2008, 36, pp 503-8)."}, "[3]": {"tested_on": "HMEC-1 endothelial cell line", "assay": "Staining of HMEC-1 dermal endothelial cell line", "assay_type": "binding, human", "settings": "flow cytometry staining", "source_text": "as §1"}},
  "note": "“And” between values parts separate entries of the source, which are not always exact repeats. Equal entries are not always repeated.",
  "data": [
    {"molecule": "B1", "values": [
      {"measurement": "normal tissues in which staining was detected", "setting": "[1]", "result": "only 6 tissues as Lymph node, colon, small intestine, placenta, stomach and prostate"},
      {"measurement": "normal tissues in which staining was detected", "setting": "[1]; listed as #A3C3", "result": "only six tissues: lymph node, prostate, skeletal muscle, stomach, colon and small intestine, and pancreas"},
      {"measurement": "Staining intensity (0 to 3+)", "setting": "[1]; Adrenal gland, replicates", "result": 0},
      {"measurement": "Staining intensity (0 to 3+)", "setting": "[1]; Cerebellum tissue, replicates", "result": 0},
      {"measurement": "Comments: epithelial cells stained", "setting": "[1]; Colon", "result": "Epithelial cells (~30%);"},
      {"measurement": "Comments: inflammatory elements stained", "setting": "[1]; Colon", "result": "inflammatory elements (100%)"},
      {"measurement": "Staining intensity (0 to 3+)", "setting": "[1]; Colon, replicates", "result": "3+"},
      {"measurement": "Staining intensity (0 to 3+)", "setting": "[1]; Esophagus, replicates", "result": 0},
      {"measurement": "Staining intensity (0 to 3+)", "setting": "[1]; Heart, replicates", "result": 0},
      {"measurement": "Staining intensity (0 to 3+)", "setting": "[1]; Kidney, replicates", "result": 0},
      {"measurement": "Staining intensity (0 to 3+)", "setting": "[1]; Liver, replicates", "result": 0},
      {"measurement": "Comments: stained elements", "setting": "[1]; Lung", "result": "Few inflammatory elements"},
      {"measurement": "Staining intensity (0 to 3+)", "setting": "[1]; Lung, replicates", "result": "2+"},
      {"measurement": "Comments: endothelial cells stained", "setting": "[1]; Lymph node", "result": "~30% of endothelial cells"},
      {"measurement": "Staining intensity (0 to 3+)", "setting": "[1]; Lymph node, replicates, listed as mAb#A3C3", "result": "2+ and 1+"},
      {"measurement": "Staining intensity (0 to 3+)", "setting": "[1]; Ovary, replicates", "result": 0},
      {"measurement": "Staining intensity (0 to 3+)", "setting": "[1]; Pancreas, replicates", "result": "1+"},
      {"measurement": "Staining intensity (0 to 3+)", "setting": "[1]; Peripheral nerve, replicates", "result": 0},
      {"measurement": "Staining intensity (0 to 3+)", "setting": "[1]; Pituitary gland, replicates", "result": 0},
      {"measurement": "Comments: cytotrophoblast cells stained", "setting": "[1]; Placenta", "result": "Cytotrophoblast cells (~10%)"},
      {"measurement": "Staining intensity (0 to 3+)", "setting": "[1]; Placenta, replicates", "result": 0},
      {"measurement": "Comments: endothelial cells stained", "setting": "[1]; Prostate", "result": "~10% of endothelial cells"},
      {"measurement": "Staining intensity (0 to 3+)", "setting": "[1]; Prostate, replicates, listed as mAb#A3C3", "result": "1+ (2×) and 0 (4×)"},
      {"measurement": "Staining intensity (0 to 3+)", "setting": "[1]; Salivary gland, replicates", "result": 0},
      {"measurement": "Comments: endothelial cells stained", "setting": "[1]; Skeletal muscle", "result": "~10% of endothelial cells"},
      {"measurement": "Staining intensity (0 to 3+)", "setting": "[1]; Skeletal muscle, replicates (first listing), listed as mAb#A3C3", "result": "1+ and 0 (2×)"},
      {"measurement": "Staining intensity (0 to 3+)", "setting": "[1]; Skeletal muscle, replicates (second listing)", "result": 0},
      {"measurement": "Staining intensity (0 to 3+)", "setting": "[1]; Skin, replicates", "result": 0},
      {"measurement": "Comments: epithelial cells stained", "setting": "[1]; Small intestine", "result": "Epithelial cells (~30%);"},
      {"measurement": "Comments: inflammatory elements stained", "setting": "[1]; Small intestine", "result": "inflammatory elements (100%)"},
      {"measurement": "Staining intensity (0 to 3+)", "setting": "[1]; Small intestine, replicates, listed as mAb#A3C3", "result": "2+ and 0 and 1+"},
      {"measurement": "Staining intensity (0 to 3+)", "setting": "[1]; Smooth muscle, replicates", "result": 0},
      {"measurement": "Staining intensity (0 to 3+)", "setting": "[1]; Spinal cord, replicates", "result": 0},
      {"measurement": "Comments: stained elements", "setting": "[1]; Spleen", "result": "Necrotic elements"},
      {"measurement": "Staining intensity (0 to 3+)", "setting": "[1]; Spleen, replicates", "result": "3+"},
      {"measurement": "Comments: epithelial cells stained", "setting": "[1]; Stomach", "result": "few epithelial cells <10%"},
      {"measurement": "Comments: gastric mucosa cells stained", "setting": "[1]; Stomach", "result": "Few gastric mucosa cells (~10%);"},
      {"measurement": "Staining intensity (0 to 3+)", "setting": "[1]; Stomach, replicates, listed as mAb#A3C3", "result": "1+ and 0 (2×)"},
      {"measurement": "Staining intensity (0 to 3+)", "setting": "[1]; Testis, replicates", "result": 0},
      {"measurement": "Staining intensity (0 to 3+)", "setting": "[1]; Thyroid gland, replicates", "result": 0},
      {"measurement": "Staining intensity (0 to 3+)", "setting": "[1]; Ureter, replicates", "result": 0},
      {"measurement": "Staining intensity (0 to 3+)", "setting": "[1]; Uterine cervix, replicates", "result": 0},
      {"measurement": "relative fluorescence intensity (RFI) by cytometry among subclones", "setting": "[2]", "result": "highest relative fluorescence intensity"},
      {"measurement": "recognition of HMEC-1 cell surface", "setting": "[3]", "result": "not recognized"}
    ]}
  ]
}
